The target of assay [1] is T1, human FAPα (Fibroblast activation protein alpha), cell surface expressed (human, UniProt Q12884 1-760).
T1 construct: Endogenous on human lung fibroblasts and CAFs
T1 sequence: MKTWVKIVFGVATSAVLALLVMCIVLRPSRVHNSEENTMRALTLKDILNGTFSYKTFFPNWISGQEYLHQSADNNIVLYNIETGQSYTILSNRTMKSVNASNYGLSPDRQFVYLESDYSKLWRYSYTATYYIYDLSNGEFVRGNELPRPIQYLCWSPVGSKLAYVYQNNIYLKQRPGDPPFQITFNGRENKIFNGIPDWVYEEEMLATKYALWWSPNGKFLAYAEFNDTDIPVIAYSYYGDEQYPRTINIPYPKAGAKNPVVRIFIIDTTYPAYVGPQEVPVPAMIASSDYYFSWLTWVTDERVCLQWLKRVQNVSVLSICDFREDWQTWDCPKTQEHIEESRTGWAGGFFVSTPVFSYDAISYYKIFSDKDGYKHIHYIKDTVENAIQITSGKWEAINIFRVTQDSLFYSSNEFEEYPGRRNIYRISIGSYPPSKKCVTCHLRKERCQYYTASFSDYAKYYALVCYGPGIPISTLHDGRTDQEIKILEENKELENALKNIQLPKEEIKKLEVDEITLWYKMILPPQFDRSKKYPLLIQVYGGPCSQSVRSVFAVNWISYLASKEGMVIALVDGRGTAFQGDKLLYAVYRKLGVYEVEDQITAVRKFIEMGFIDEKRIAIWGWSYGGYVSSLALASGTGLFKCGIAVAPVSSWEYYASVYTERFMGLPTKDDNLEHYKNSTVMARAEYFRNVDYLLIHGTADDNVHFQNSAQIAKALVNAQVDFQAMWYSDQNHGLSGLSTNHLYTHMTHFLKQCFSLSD
The assay can be described thus: flow cytometry, Expi293F cells expressing human FAPα, n = 2. The procedure: (§1) Binding of BisG1-FAPα-FERL/DR4-FERR, BisG1-FAPα-FEAL/b12-FEAR and IgG1-FAPα-FERL to FAPα of species commonly used for nonclinical toxicology studies was assessed by flow cytometry using Expi293F cells transiently expressing FAPα from different animal species. IgG1-b12 was included as negative control.
(§2) Expi293F cells expressing recombinant FAPα from various species (human, cynomolgus monkey, dog, pig, rat or mouse) were seeded (20,000 cells/well) in 96-Well round bottom plates (Greiner Bio-one, Cat #650101). Antibody dilutions were prepared using FACS buffer, consisting of PBS (Capricorn Scientific, Cat #PBS-10XA, diluted to 1×PBS in distilled water)+1% BSA (Roche, Cat #10735086001)+0.02% Sodium Azide (Bio-World, Cat #41920044-3). Plates were centrifuged, supernatant was removed, and cells were resuspended in 100 μL of antibody dilutions (concentration range 30-0.00017 μg/mL with three-fold serial dilutions using FACS buffer) of BisG1-FAPα-FERL/DR4-FERR, BisG1-FAPα-FEAL/b12-FEAR, IgG1-FAPα-FERL and IgG1-b12 and incubated for 30 min at 4° C. […] After 30 min incubation at 4° C., cells were washed with FACS buffer and resuspended in FACS buffer supplemented with TO-PRO-3 Iodide viability marker (Invitrogen, Cat #T3605, diluted 1:4,000). Antibody binding to viable cells (gMFI of PE on TO-PRO-3 negative cells) was analyzed by flow cytometry on a FACS Celesta and FACS_Diva software (first two experiments) or iQue® 3 and FlowJo software (last experiment). gMFI was determined and visualized using GraphPad Prism. Binding curves were analyzed using nonlinear regression analysis. The concentration (pg/mL) at which 50% of the maximal effect was observed (EC₅₀) was derived from the fitted curves.
For orientation: Flow cytometry measures light scatter and fluorescence of single cells or particles in a stream.

Assay [2] concerns the target T1, human FAPα (Fibroblast activation …). The assay can be described thus: flow cytometry, Expi293F cells expressing human FAPα, average ± SEM. The procedure:
as §1, §2

Assay [3] deals with T2, cynomolgus monkey FAPα on Expi293F cells (cynomolgus monkey (Macaca fascicularis), UniProt Q12884 1-760 (human entry)).
T2 sequence: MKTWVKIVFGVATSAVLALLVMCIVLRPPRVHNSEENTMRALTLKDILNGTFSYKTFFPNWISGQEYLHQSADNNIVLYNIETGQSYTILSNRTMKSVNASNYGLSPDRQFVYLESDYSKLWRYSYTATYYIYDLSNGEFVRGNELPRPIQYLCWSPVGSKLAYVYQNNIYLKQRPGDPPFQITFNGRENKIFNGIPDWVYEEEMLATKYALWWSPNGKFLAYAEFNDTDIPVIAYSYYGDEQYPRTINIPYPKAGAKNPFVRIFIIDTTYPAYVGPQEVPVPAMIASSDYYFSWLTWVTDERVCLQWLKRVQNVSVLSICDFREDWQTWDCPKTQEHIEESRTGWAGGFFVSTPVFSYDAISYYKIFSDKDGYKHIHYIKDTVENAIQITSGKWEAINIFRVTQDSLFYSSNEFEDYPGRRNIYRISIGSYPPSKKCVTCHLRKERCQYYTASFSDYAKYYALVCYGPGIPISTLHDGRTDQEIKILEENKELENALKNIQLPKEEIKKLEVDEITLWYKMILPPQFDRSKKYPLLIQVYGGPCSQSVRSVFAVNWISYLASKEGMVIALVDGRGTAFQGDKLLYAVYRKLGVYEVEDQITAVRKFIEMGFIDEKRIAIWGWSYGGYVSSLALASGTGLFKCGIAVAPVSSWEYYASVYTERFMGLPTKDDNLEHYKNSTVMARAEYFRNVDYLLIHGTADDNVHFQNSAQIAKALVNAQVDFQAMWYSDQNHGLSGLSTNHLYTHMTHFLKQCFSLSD
Put plainly: flow cytometry, Expi293F cells expressing cynomolgus monkey FAPα, average ± SEM. The procedure: as §1, §2

The target of assay [4] is T3, human DR4 (Death Receptor 4), cell surface expressed on human tumor cell lines (human, UniProt O00220 24-468).
T3 construct: also called TNFRSF10A; TRAIL-R1
T3 sequence: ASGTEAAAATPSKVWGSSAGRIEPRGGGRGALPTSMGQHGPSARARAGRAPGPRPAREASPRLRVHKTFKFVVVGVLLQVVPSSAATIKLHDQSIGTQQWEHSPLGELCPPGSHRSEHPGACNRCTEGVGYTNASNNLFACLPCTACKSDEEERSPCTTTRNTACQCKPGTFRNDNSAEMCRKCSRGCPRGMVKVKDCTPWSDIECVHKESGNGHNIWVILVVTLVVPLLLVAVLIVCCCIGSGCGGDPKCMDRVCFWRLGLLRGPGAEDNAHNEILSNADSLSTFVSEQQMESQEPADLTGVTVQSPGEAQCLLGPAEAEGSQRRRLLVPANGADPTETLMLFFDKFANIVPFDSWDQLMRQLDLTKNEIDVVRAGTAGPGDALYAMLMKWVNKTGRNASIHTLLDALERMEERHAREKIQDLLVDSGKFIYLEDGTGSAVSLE
Put plainly: flow cytometry, HCT-116 cells, n = 2.

B1: BisG1-FAPα-FEAL/b12-FEAR (bispecific antibody, human IgG1, kappa)
heavy 1: EVQLLESGGGLVQPGGSPRLSCEASGFTFSSYALSWVRQAPGKGLEWVSAISGSGGGRYYADSVKGRFTISRDNSKNTLFLQMNSLRAEDTAVYYCAKEGYSSSGTYWDHWGQGTLVTVSSASTKGPSVFPLAPSSKSTSGGTAALGCLVKDYFPEPVTVSWNSGALTSGVHTFPAVLQSSGLYSLSSVVTVPSSSLGTQTYICNVNHKPSNTKVDKRVEPKSCDKTHTCPPCPAPEFEGGPSVFLFPPKPKDTLMISRTPEVTCVVVAVSHEDPEVKFNWYVDGVEVHNAKTKPREEQYNSTYRVVSVLTVLHQDWLNGKEYKCKVSNKALPAPIEKTISKAKGQPREPQVYTLPPSREEMTKNQVSLTCLVKGFYPSDIAVEWESNGQPENNYKTTPPVLDSDGSFLLYSKLTVDKSRWQQGNVFSCSVMHEALHNHYTQKSLSLSPG
light 1: AIQMTQSPSSVSASVGDRVTITCRASQGVSSWLAWYQQKPGRAPKLLIYVASTLQSGVPSRFSGSGSGTDFTLTINSLQPEDFATYYCQQANSFPPTFGQGTRLEMKRTVAAPSVFIFPPSDEQLKSGTASVVCLLNNFYPREAKVQWKVDNALQSGNSQESVTEQDSKDSTYSLSSTLTLSKADYEKHKVYACEVTHQGLSSPVTKSFNRGEC
heavy 2: QVQLVQSGAEVKKPGASVKVSCQASGYRFSNFVIHWVRQAPGQRFEWMGWINPYNGNKEFSAKFQDRVTFTADTSANTAYMELRSLRSADTAVYYCARVGPYSWDDSPQDNYYMDVWGKGTTVIVSSASTKGPSVFPLAPSSKSTSGGTAALGCLVKDYFPEPVTVSWNSGALTSGVHTFPAVLQSSGLYSLSSVVTVPSSSLGTQTYICNVNHKPSNTKVDKRVEPKSCDKTHTCPPCPAPEFEGGPSVFLFPPKPKDTLMISRTPEVTCVVVAVSHEDPEVKFNWYVDGVEVHNAKTKPREEQYNSTYRVVSVLTVLHQDWLNGKEYKCKVSNKALPAPIEKTISKAKGQPREPQVYTLPPSREEMTKNQVSLTCLVKGFYPSDIAVEWESNGQPENNYKTTPPVLDSDGSFFLYSRLTVDKSRWQQGNVFSCSVMHEALHNHYTQKSLSLSPG
light 2: EIVLTQSPGTLSLSPGERATFSCRSSHSIRSRRVAWYQHKPGQAPRLVIHGVSNRASGISDRFSGSGSGTDFTLTITRVEPEDFALYYCQVYGASSYTFGQGTKLERKRTVAAPSVFIFPPSDEQLKSGTASVVCLLNNFYPREAKVQWKVDNALQSGNSQESVTEQDSKDSTYSLSSTLTLSKADYEKHKVYACEVTHQGLSSPVTKSFNRGEC
notes: Fab-arm exchange of IgG1-FAPα-FEAL and IgG1-b12-FEAR
In general, EC50 refers to the concentration needed to bring the measured effect to its halfway point. Consider B1, for which the half-maximal effective concentration (EC50) in assay [1] worked out at 0.16 mg/L; in assay [2], 0.3 mg/L; in assay [3], 0.19 mg/L.

B2: IgG1-FAPα-FERL (antibody)
heavy: EVQLLESGGGLVQPGGSPRLSCEASGFTFSSYALSWVRQAPGKGLEWVSAISGSGGGRYYADSVKGRFTISRDNSKNTLFLQMNSLRAEDTAVYYCAKEGYSSSGTYWDHWGQGTLVTVSSASTKGPSVFPLAPSSKSTSGGTAALGCLVKDYFPEPVTVSWNSGALTSGVHTFPAVLQSSGLYSLSSVVTVPSSSLGTQTYICNVNHKPSNTKVDKRVEPKSCDKTHTCPPCPAPEFERGPSVFLFPPKPKDTLMISRTPEVTCVVVDVSHEDPEVKFNWYVDGVEVHNAKTKPREEQYNSTYRVVSVLTVLHQDWLNGKEYKCKVSNKALPAPIEKTISKAKGQPREPQVYTLPPSREEMTKNQVSLTCLVKGFYPSDIAVEWESNGQPENNYKTTPPVLDSDGSFLLYSKLTVDKSRWQQGNVFSCSVMHEALHNHYTQKSLSLSPG
light: AIQMTQSPSSVSASVGDRVTITCRASQGVSSWLAWYQQKPGRAPKLLIYVASTLQSGVPSRFSGSGSGTDFTLTINSLQPEDFATYYCQQANSFPPTFGQGTRLEMKRTVAAPSVFIFPPSDEQLKSGTASVVCLLNNFYPREAKVQWKVDNALQSGNSQESVTEQDSKDSTYSLSSTLTLSKADYEKHKVYACEVTHQGLSSPVTKSFNRGEC
notes: Bivalent monoclonal IgG1 kappa
Turning to B2, the EC50 in assay [1] was determined as 0.12 mg/L; in assay [2], 0.18 mg/L; in assay [3], 0.1 mg/L.

B3: IgG1-DR4-FERR (antibody, V domains shown)
VH: QVQLQESGPGLVKPSGTLSLTCAVSGGSISSYSWWSWIRQPPGKGLEWIGELYHSGSTNYNPSLKSRVTISVDKSKNQFSLKLRSVTAADTAVYYCVRGVATIDYWGQGTLVTVSS
VL: QSALTQPPSASGSPGQSVTISCTGTSSDVGGYNFVSWYQQDPGKAPKLLIYEVTKRPSGVPDRFSGSKSGNTASLTVSGLQAEDEADYYCSSYAGSNNVMFGGGTKLTVLG
notes: Bivalent monoclonal IgG1 lambda
As to B3, it took 0.16 mg/L to reach a half-maximal effect in assay [4] (EC50).

The values above are taken from patent US20250002610A1 (Genmab, published 2025).
